Data as given in IntAct's records for PubMed 19556969.

B1: Regulator of nonsense transcripts 2 (Homo sapiens), Q9HAU5 (parent)
chain: MPAERKKPASMEEKDSLPNNKEKDCSERRTVSSKERPKDDIKLTAKKEVSKAPEDKKKRLEDDKRKKEDKERKKKDEEKVKAEEESKKKEEEEKKKHQEEERKKQEEQAKRQQEEEAAAQMKEKEESIQLHQEAWERHHLRKELRSKNQNAPDSRPEENFFSRLDSSLKKNTAFVKKLKTITEQQRDSLSHDFNGLNLSKYIAEAVASIVEAKLKISDVNCAVHLCSLFHQRYADFAPSLLQVWKKHFEARKEEKTPNITKLRTDLRFIAELTIVGIFTDKEGLSLIYEQLKNIINADRESHTHVSVVISFCRHCGDDIAGLVPRKVKSAAEKFNLSFPPSEIISPEKQQPFQNLLKEYFTSLTKHLKRDHRELQNTERQNRRILHSKGELSEDRHKQYEEFAMSYQKLLANSQSLADLLDENMPDLPQDKPTPEEHGPGIDIFTPGKPGEYDLEGGIWEDEDARNFYENLIDLKAFVPAILFKDNEKSCQNKESNKDDTKEAKESKENKEVSSPDDLELELENLEINDDTLELEGGDEAEDLTKKLLDEQEQEDEEASTGSHLKLIVDAFLQQLPNCVNRDLIDKAAMDFCMNMNTKANRKKLVRALFIVPRQRLDLLPFYARLVATLHPCMSDVAEDLCSMLRGDFRFHVRKKDQINIETKNKTVRFIGELTKFKMFTKNDTLHCLKMLLSDFSHHHIEMACTLLETCGRFLFRSPESHLRTSVLLEQMMRKKQAMHLDARYVTMVENAYYYCNPPPAEKTVKKKRPPLQEYVRKLLYKDLSKVTTEKVLRQMRKLPWQDQEVKDYVICCMINIWNVKYNSIHCVANLLAGLVLYQEDVGIHVVDGVLEDIRLGMEVNQPKFNQRRISSAKFLGELYNYRMVESAVIFRTLYSFTSFGVNPDGSPSSLDPPEHLFRIRLVCTILDTCGQYFDRGSSKRKLDCFLVYFQRYVWWKKSLEVWTKDHPFPIDIDYMISDTLELLRPKIKLCNSLEESIRQVQDLEREFLIKLGLVNDKDSKDSMTEGENLEEDEEEEEGGAETEEQSGNESEVNEPEEEEGSDNDDDEGEEEEEENTDYLTDSNKENETDEENTEVMIKGGGLKHVPCVEDEDFIQALDKMMLENLQQRSGESVKVHQLDVAIPLHLKSQLRKGPPLGGGEGEAESADTMPFVMLTRKGNKQQFKILNVPMSSQLAANHWNQQQAEQEERMRMKKLTLDINERQEQEDYQEMLQSLAQRPAPANTNRERRPRYQHPKGAPNADLIFKTGGRRR
partner: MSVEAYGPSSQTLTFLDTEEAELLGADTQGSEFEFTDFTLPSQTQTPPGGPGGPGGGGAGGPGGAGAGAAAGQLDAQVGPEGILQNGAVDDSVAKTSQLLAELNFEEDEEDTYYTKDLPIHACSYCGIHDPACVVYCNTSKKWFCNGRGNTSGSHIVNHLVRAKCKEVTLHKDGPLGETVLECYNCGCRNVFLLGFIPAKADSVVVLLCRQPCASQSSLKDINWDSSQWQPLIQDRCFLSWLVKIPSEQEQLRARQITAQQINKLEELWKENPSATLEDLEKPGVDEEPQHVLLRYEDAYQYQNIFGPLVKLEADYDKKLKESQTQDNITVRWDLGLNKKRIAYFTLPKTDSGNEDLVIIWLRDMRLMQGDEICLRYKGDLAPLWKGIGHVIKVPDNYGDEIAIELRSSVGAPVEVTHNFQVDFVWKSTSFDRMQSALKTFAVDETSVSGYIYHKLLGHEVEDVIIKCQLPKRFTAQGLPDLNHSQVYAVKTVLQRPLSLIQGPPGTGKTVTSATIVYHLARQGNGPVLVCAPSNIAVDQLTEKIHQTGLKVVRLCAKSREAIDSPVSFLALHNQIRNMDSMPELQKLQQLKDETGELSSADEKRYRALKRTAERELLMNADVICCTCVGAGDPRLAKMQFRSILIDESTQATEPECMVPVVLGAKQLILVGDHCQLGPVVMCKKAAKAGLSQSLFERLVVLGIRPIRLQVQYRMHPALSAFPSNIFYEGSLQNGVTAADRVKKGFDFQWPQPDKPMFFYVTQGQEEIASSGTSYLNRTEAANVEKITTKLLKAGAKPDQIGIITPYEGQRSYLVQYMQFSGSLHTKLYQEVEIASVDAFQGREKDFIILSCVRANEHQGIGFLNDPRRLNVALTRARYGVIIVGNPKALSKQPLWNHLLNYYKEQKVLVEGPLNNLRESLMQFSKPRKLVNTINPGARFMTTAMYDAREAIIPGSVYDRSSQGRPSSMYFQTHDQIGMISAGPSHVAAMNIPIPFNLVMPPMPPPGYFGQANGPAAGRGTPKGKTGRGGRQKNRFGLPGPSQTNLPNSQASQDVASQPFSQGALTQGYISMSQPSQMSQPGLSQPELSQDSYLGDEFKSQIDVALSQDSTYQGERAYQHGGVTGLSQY

Variants of: B1
Conditions: with rent1_human UPF1, Q92900
In the case of M1121E, the “effect of a mutation on the interaction” value is reported as “decreasing interaction”.

Variants of: B1
Conditions: with rent1_human UPF1, Q92900
Remark: another data set of the same source
For M1173E, the “effect of a mutation on the interaction” value was “disrupting interaction”.

Variants of: B1
Conditions: with rent1_human UPF1, Q92900
Remark: another data set of the same source
With E1123R the “effect of a mutation on the interaction” value was “decreasing interaction”.

Variants of: B1
Conditions: with rent1_human UPF1, Q92900
Remark: another data set of the same source
In the case of F1113E, the “effect of a mutation on the interaction” value is reported as “disrupting interaction”.

Variants of: B1
Conditions: with rent1_human UPF1, Q92900
Remark: another data set of the same source
In the case of M1120E, the “effect of a mutation on the interaction” value is reported as “decreasing interaction”.

Variants of: B1
Conditions: with rent1_human UPF1, Q92900
Remark: another data set of the same source
With R1176E the “effect of a mutation on the interaction” value was “decreasing interaction”.

Variants of: B1
Conditions: with rent1_human UPF1, Q92900
Remark: another data set of the same source
With F1171E the “effect of a mutation on the interaction” value was “disrupting interaction”.

Variants of: B1
Conditions: with rent1_human UPF1, Q92900
Remark: another data set of the same source
M1169E was tested, and the “effect of a mutation on the interaction” value was “decreasing interaction”.

Variants of: B1
Conditions: with rent1_human UPF1, Q92900
Remark: another data set of the same source
For L1174E, the “effect of a mutation on the interaction” value was “disrupting interaction”.
